According to patent US20260108614A1, “IMMOBILIZED ENDOGLYCOSIDASE FUSION PROTEIN AND USE THEREOF” (GENEQUANTUM HEALTHCARE (SUZHOU) CO., LTD., priority 2022, published 2026):

Assay: Isoelectric point
Format: physicochemical
Conditions: method not stated

B1: Halo-Endo S2-His: endoglycosidase fusion protein: Halo tag, Endo S2 and His tag, SEQ ID NO: 1 (protein)
chain: MAEIGTGFPFDPHYVEVLGERMHYVDVGPRDGTPVLFLHGNPTSSYVWRNIIPHVAPTHRCIAPDLIGMGKSDKPDLGYFFDDHVRFMDAFIEALGLEEVVLVIHDWGSALGFHWAKRNPERVKGIAFMEFIRPIPTWDEWPEFARETFQAFRTTDVGRKLIIDQNVFIEGTLPMGVVRPLTEVEMDHYREPFLNPVDREPLWRFPNELPIAGEPANIVALVEEYMDWLHQSPVPKLLFWGTPGVLIPPAEAARLAKSLPNCKAVDIGPGLNLLQEDNPDLIGSEIARWLSTLEISGGGGGSGGGGSMDKHLLVKRTLGCVCAATLMGAALATHHDSLNTVKAEEKTVQTGKTDQQVGAKLVQEIREGKRGPLYAGYFRTWHDRASTGIDGKQQHPENTMAEVPKEVDILFVFHDHTASDSPFWSELKDSYVHKLHQQGTALVQTIGVNELNGRTGLSKDYPDTPEGNKALAAAIVKAFVTDRGVDGLDIDIEHEFTNKRTPEEDARALNVFKEIAQLIGKNGSDKSKLLIMDTTLSVENNPIFKGIAEDLDYLLRQYYGSQGGEAEVDTINSDWNQYQNYIDASQFMIGFSFFEESASKGNLWFDVNEYDPNNPEKGKDIEGTRAKKYAEWQPSTGGLKAGIFSYAIDRDGVAHVPSTYKNRTSTNLQRHEVDNISHTDYTVSRKLKTLMTEDKRYDVIDQKDIPDPALREQIIQQVGQYKGDLERYNKTLVLTGDKIQNLKGLEKLSKLQKLELRQLSNVKEITPELLPESMKKDAELVMVGMTGLEKLNLSGLNRQTLDGIDVNSITHLTSFDISHNSLDLSEKSEDRKLLMTLMEQVSNHQKITVKNTAFENQKPKGYYPQTYDTKEGHYDVDNAEHDILTDFVFGTVTKRNTFIGDEEAFAIYKEGAVDGRQYVSKDYTYEAFRKDYKGYKVHLTASNLGETVTSKVTATTDETYLVDVSDGEKVVHHMKLNIGSGAIMMENLAKGAKVIGTSGDFEQAKKIFDGEKSDRFFTWGQTNWIAFDLGEINLAKEWRLFNAETNTEIKTDSSLNVAKGRLQILKDTTIDLEKMDIKNRKEYLSNDENWTDVAQMDDAKAIFNSKLSNVLSRYWRFCVDGGASSYYPQYTELQILGQRLSNDVANTLKDHHHHHHHHHH
modifications: Halo-Endo S2-His
isoelectric point: 5.5
